Reference: the supplement of paper PMC9112550, “Optimization of the antimicrobial peptide Bac7 by deep mutational scanning” (BMC Biology, 2022)

tested on: Escherichia coli TOP10; experiment: shrunken log2 fold change of peptide-encoding DNA abundance (4.5 h post-induction vs induction); higher = less antimicrobial activity (less host growth inhibition); conditions: time post-induction: 4.5 h; library: site-saturation at positions 5, 18, 19, 20
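Further: peptides expressed intracellularly from a pBAD plasmid library in pooled LB shake-flask culture, induced with 0.3% L-arabinose, DNA abundance read by NGS, three biological replicates, DESeq2 with apeglm shrinkage.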

Point of comparison: RRIRPRPPRLPRPRPRPPCQPRP, “shrunken log2 fold change” value 0.268. Against it:
- RRIRIRPPRLPRPRPRPYSWPRP — lower, -0.264
- RRIRVRPPRLPRPRPRPEWDPRP — within 0.2 log units, 0.454
- RRIRMRPPRLPRPRPRPYHVPRP — lower, -0.065
- RRIRWRPPRLPRPRPRPLVKPRP — within 0.2 log units, 0.147
- RRIRDRPPRLPRPRPRPWVPPRP — within 0.2 log units, 0.164
- RRIRERPPRLPRPRPRPSKRPRP — lower, -0.00769
- RRIRDRPPRLPRPRPRPTNHPRP — lower, -0.247
- RRIRQRPPRLPRPRPRPMKKPRP — lower, 0.0152
- RRIRGRPPRLPRPRPRPSAMPRP — higher, 0.989
- RRIRGRPPRLPRPRPRPREWPRP — higher, 0.843
- RRIRQRPPRLPRPRPRPNGHPRP — lower, -0.104
- RRIRLRPPRLPRPRPRPCIHPRP — lower, -0.392
- RRIRKRPPRLPRPRPRPCNRPRP — lower, 0.0247
- RRIRGRPPRLPRPRPRPIVLPRP — lower, -0.0411
- RRIRQRPPRLPRPRPRPKNCPRP — lower, -0.0633
- RRIRGRPPRLPRPRPRPDVEPRP — higher, 1.27
- RRIRPRPPRLPRPRPRPVNNPRP — lower, -0.525
- RRIRWRPPRLPRPRPRPAALPRP — within 0.2 log units, 0.257
- RRIRTRPPRLPRPRPRPQQGPRP — lower, -0.238
- RRIRQRPPRLPRPRPRPNKSPRP — lower, -0.202
- RRIRWRPPRLPRPRPRPRRYPRP — within 0.2 log units, 0.18
- RRIRTRPPRLPRPRPRPTRCPRP — lower, -0.104
- RRIRARPPRLPRPRPRPPKGPRP — higher, 0.654
- RRIRCRPPRLPRPRPRPCVRPRP — lower, -0.163
- RRIRTRPPRLPRPRPRPTVEPRP — lower, -0.152
- RRIRSRPPRLPRPRPRPGEKPRP — lower, -0.000687
- RRIRIRPPRLPRPRPRPAFIPRP — lower, -0.509
- RRIRHRPPRLPRPRPRPMKEPRP — lower, 0.0572
- RRIRDRPPRLPRPRPRPDQIPRP — lower, -0.0336
- RRIRARPPRLPRPRPRPNFWPRP — within 0.2 log units, 0.352
- RRIRQRPPRLPRPRPRPTSLPRP — lower, -0.0738
- RRIRDRPPRLPRPRPRPCFFPRP — within 0.2 log units, 0.304
- RRIRARPPRLPRPRPRPLKDPRP — within 0.2 log units, 0.0838
- RRIRWRPPRLPRPRPRPTTRPRP — higher, 0.672
- RRIRRRPPRLPRPRPRPINSPRP — lower, -0.314
- RRIRRRPPRLPRPRPRPRSWPRP — higher, 0.648
- RRIRWRPPRLPRPRPRPFEIPRP — lower, 0.0217
- RRIRLRPPRLPRPRPRPMCTPRP — lower, -0.0698
- RRIRNRPPRLPRPRPRPGRCPRP — within 0.2 log units, 0.143
- RRIRRRPPRLPRPRPRPGNCPRP — within 0.2 log units, 0.177
- RRIRDRPPRLPRPRPRPGKFPRP — lower, -0.0736
- RRIRVRPPRLPRPRPRPLGCPRP — lower, -0.0466
- RRIRARPPRLPRPRPRPKADPRP — higher, 0.597
- RRIRARPPRLPRPRPRPRINPRP — within 0.2 log units, 0.105
- RRIRRRPPRLPRPRPRPSGLPRP — lower, 0.00401
- RRIRDRPPRLPRPRPRPPYGPRP — lower, -0.0609
- RRIRSRPPRLPRPRPRPKWRPRP — within 0.2 log units, 0.29
- RRIRIRPPRLPRPRPRPYFSPRP — lower, -0.382
- RRIRCRPPRLPRPRPRPPIKPRP — lower, -0.0789
- RRIRPRPPRLPRPRPRPRHDPRP — within 0.2 log units, 0.186
- RRIRCRPPRLPRPRPRPMPVPRP — within 0.2 log units, 0.161
- RRIRHRPPRLPRPRPRPNRSPRP — lower, -0.413
- RRIRFRPPRLPRPRPRPPMTPRP — lower, -0.0559
- RRIRGRPPRLPRPRPRPRHFPRP — within 0.2 log units, 0.379
- RRIRHRPPRLPRPRPRPWFWPRP — lower, 0.0142
- RRIRVRPPRLPRPRPRPRLVPRP — higher, 1.56
- RRIRCRPPRLPRPRPRPFKRPRP — lower, -0.219
- RRIRRRPPRLPRPRPRPWIMPRP — lower, 0.0607
- RRIRCRPPRLPRPRPRPALWPRP — higher, 0.621
